Experimental data reported in the supplement of paper PMC9876800.

tested on: peptide library, one residue held at a place counted from the S/T acceptor; assay: relative phosphorylation of the sub-library (ratio to the mean residue at this position); human; higher = residue favoured; details: Y fixed; at -2
Outline: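 In 384-well plates, purified recombinant kinases (human or orthologue constructs) were incubated for 90 min under kinase-specific conditions with 50 μM biotinylated degenerate peptide sub-libraries and 50 μM ATP spiked with γ-32P-ATP. Each sub-library fixed a single residue at one position around a central Ser/Thr. Relative sub-library phosphorylation, measured by phosphorimaging and densitometry of streptavidin membrane spots, is given as a ratio to the mean residue at that position.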

Sequence of SIK3, construct: aa1-307 (Q9Y2K2 1-307, looked up): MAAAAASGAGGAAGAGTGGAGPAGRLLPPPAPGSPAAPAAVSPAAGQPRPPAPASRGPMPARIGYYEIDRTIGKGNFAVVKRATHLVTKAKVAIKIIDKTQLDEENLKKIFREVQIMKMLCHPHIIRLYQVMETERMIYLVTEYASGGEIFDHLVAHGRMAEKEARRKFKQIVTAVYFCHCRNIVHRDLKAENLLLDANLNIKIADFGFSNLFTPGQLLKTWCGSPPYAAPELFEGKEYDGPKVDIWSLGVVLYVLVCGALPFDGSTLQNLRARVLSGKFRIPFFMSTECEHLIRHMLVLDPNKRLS
Sequence of NEK6, construct: Full length (Q9HC98 whole entry, looked up): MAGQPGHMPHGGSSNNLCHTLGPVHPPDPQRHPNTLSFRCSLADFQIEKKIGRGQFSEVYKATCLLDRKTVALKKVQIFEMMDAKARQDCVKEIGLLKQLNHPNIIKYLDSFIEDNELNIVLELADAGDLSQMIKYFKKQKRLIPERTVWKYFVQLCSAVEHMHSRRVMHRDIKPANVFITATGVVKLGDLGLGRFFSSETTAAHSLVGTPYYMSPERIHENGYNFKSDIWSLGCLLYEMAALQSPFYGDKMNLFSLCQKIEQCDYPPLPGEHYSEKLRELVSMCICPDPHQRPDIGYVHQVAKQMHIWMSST
Sequence of SLK, construct: Full length (Q9H2G2 whole entry, looked up): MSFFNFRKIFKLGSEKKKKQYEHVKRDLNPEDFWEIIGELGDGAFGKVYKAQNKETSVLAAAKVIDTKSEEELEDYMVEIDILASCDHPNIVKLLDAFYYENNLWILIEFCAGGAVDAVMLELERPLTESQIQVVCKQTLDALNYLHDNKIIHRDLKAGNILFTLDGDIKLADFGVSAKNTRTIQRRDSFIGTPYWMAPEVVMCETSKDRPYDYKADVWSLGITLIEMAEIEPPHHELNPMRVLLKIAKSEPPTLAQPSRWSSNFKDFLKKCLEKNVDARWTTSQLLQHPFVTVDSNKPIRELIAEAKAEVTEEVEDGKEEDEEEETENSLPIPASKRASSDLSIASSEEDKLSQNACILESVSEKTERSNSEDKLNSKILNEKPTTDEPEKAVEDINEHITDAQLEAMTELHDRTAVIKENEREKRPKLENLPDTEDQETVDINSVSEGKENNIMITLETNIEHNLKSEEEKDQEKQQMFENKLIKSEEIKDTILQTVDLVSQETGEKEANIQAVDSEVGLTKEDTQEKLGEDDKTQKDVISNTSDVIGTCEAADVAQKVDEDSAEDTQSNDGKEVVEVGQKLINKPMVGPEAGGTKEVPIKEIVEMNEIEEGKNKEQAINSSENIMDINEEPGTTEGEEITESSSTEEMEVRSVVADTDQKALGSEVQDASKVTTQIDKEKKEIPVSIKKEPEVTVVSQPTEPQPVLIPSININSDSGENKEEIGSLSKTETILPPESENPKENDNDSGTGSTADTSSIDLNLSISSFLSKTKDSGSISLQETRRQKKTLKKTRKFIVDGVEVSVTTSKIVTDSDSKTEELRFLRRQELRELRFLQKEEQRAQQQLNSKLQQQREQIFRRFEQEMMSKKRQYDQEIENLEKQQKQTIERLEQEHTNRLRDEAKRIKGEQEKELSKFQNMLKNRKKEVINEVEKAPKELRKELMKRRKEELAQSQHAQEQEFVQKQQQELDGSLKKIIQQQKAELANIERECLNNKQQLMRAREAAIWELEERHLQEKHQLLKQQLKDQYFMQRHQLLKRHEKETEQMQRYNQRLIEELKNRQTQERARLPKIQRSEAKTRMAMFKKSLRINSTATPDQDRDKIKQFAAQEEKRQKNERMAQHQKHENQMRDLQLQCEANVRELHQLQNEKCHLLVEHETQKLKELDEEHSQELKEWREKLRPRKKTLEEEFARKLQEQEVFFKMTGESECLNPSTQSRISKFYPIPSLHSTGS
Sequence of CDK10, construct: Full length (Q15131 whole entry, looked up): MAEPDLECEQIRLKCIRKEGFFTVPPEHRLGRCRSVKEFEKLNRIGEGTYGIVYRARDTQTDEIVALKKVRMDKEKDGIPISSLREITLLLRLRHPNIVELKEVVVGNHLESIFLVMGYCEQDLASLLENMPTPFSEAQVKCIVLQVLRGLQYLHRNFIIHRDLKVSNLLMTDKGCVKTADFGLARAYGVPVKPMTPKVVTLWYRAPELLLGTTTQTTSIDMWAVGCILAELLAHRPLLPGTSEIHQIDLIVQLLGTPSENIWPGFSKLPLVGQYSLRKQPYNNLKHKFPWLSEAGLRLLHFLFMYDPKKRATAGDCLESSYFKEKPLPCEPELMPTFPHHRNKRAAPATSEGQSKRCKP
Sequence of TNIK, construct: aa1-314 (Q9UKE5 1-314, looked up): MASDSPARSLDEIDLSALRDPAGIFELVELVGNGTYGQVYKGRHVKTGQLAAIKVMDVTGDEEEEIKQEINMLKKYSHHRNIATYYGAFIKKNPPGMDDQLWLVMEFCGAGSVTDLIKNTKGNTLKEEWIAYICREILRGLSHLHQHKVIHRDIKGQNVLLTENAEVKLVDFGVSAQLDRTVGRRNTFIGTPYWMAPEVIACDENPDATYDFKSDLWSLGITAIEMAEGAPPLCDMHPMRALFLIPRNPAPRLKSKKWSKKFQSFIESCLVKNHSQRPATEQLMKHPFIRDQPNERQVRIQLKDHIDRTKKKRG
Sequence of MAP4K5, construct: Full length (Q9Y4K4 whole entry, looked up): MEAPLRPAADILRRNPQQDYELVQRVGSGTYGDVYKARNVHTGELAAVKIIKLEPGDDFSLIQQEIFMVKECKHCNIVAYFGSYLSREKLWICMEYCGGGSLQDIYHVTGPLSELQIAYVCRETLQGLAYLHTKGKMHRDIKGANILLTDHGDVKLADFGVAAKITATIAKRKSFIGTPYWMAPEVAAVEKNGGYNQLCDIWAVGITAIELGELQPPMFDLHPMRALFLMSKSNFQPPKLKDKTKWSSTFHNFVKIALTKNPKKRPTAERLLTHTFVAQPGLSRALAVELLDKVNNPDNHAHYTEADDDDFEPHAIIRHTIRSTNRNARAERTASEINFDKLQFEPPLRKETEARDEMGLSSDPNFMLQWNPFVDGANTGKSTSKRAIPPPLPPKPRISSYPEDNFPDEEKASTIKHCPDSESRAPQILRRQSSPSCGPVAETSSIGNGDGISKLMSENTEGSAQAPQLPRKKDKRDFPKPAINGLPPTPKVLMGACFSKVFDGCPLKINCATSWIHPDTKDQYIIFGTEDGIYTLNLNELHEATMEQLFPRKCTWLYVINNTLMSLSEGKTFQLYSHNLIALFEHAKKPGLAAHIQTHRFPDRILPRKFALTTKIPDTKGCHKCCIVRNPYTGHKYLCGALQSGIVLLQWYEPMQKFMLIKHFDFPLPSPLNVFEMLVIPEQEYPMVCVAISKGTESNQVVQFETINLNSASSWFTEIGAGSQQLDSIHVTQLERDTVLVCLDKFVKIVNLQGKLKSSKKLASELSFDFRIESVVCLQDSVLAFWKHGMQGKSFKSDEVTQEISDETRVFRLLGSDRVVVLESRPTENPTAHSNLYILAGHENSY
Sequence of IKBKE, construct: Full length (Q14164 whole entry, looked up): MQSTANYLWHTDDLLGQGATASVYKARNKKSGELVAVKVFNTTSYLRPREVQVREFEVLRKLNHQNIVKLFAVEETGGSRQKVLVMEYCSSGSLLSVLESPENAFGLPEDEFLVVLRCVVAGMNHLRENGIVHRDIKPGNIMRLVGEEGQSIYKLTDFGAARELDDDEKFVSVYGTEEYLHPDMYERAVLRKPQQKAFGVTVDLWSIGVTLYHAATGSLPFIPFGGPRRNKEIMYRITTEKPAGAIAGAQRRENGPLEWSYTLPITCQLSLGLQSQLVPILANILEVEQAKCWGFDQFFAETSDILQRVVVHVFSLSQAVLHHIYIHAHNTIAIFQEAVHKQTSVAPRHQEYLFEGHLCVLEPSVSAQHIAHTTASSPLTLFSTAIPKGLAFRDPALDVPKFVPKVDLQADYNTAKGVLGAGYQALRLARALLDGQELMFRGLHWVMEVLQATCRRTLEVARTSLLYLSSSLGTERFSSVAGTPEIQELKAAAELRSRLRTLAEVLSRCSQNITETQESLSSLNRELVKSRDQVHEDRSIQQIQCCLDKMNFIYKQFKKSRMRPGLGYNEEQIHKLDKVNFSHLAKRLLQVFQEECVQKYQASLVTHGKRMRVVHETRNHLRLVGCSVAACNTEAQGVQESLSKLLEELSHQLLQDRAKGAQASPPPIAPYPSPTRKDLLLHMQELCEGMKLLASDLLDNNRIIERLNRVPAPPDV

| Substance | relative phosphorylation |
| --- | --- |
| TNIK, construct: aa1-314 (from UniProt Q9UKE5) | 1.55 |
| SLK, construct: Full length (from UniProt Q9H2G2) | 5.07 |
| CDK10, construct: Full length (from UniProt Q15131) | 0.727 |

same assay, conditions: Y fixed; at -3

| Substance | relative phosphorylation |
| --- | --- |
| PKN2, construct: aa501-984 (from UniProt Q16513) | 0.742 |
| IKBKE, construct: Full length (from UniProt Q14164) | 0.995 |
| MAP4K5, construct: Full length (from UniProt Q9Y4K4) | 0.989 |
| NEK6, construct: Full length (from UniProt Q9HC98) | 1.27 |
| SIK3, construct: aa1-307 (from UniProt Q9Y2K2) | 0.658 |
| TNIK, construct: aa1-314 (from UniProt Q9UKE5) | 1.16 |
| SLK, construct: Full length (from UniProt Q9H2G2) | 1.26 |
| CDK10, construct: Full length (from UniProt Q15131) | 0.86 |

same assay, conditions: Y fixed; at -4

| Substance | relative phosphorylation |
| --- | --- |
| PKN2, construct: aa501-984 (from UniProt Q16513) | 0.809 |
| IKBKE, construct: Full length (from UniProt Q14164) | 0.918 |
| MAP4K5, construct: Full length (from UniProt Q9Y4K4) | 1.05 |
| NEK6, construct: Full length (from UniProt Q9HC98) | 0.75 |
| SIK3, construct: aa1-307 (from UniProt Q9Y2K2) | 0.987 |
| TNIK, construct: aa1-314 (from UniProt Q9UKE5) | 1.19 |
| SLK, construct: Full length (from UniProt Q9H2G2) | 0.95 |
| CDK10, construct: Full length (from UniProt Q15131) | 0.918 |

same assay, conditions: Y fixed; at -5

| Substance | relative phosphorylation |
| --- | --- |
| PKN2, construct: aa501-984 (from UniProt Q16513) | 0.824 |
| IKBKE, construct: Full length (from UniProt Q14164) | 0.974 |
| MAP4K5, construct: Full length (from UniProt Q9Y4K4) | 1.02 |
| NEK6, construct: Full length (from UniProt Q9HC98) | 0.767 |
| SIK3, construct: aa1-307 (from UniProt Q9Y2K2) | 0.868 |
| TNIK, construct: aa1-314 (from UniProt Q9UKE5) | 1.02 |
| SLK, construct: Full length (from UniProt Q9H2G2) | 0.872 |
| CDK10, construct: Full length (from UniProt Q15131) | 1.12 |

same assay, conditions: pThr fixed; at +1

| Substance | relative phosphorylation |
| --- | --- |
| PKN2, construct: aa501-984 (from UniProt Q16513) | 1.05 |
| IKBKE, construct: Full length (from UniProt Q14164) | 0.471 |
| MAP4K5, construct: Full length (from UniProt Q9Y4K4) | 0.61 |
| NEK6, construct: Full length (from UniProt Q9HC98) | 0.602 |
| SIK3, construct: aa1-307 (from UniProt Q9Y2K2) | 0.992 |
| TNIK, construct: aa1-314 (from UniProt Q9UKE5) | 0.541 |
| SLK, construct: Full length (from UniProt Q9H2G2) | 0.61 |
| CDK10, construct: Full length (from UniProt Q15131) | 0.506 |

same assay, conditions: pThr fixed; at +2

| Substance | relative phosphorylation |
| --- | --- |
| PKN2, construct: aa501-984 (from UniProt Q16513) | 1.15 |
| IKBKE, construct: Full length (from UniProt Q14164) | 1.03 |
| MAP4K5, construct: Full length (from UniProt Q9Y4K4) | 0.623 |
| NEK6, construct: Full length (from UniProt Q9HC98) | 0.396 |
| SIK3, construct: aa1-307 (from UniProt Q9Y2K2) | 0.79 |
| TNIK, construct: aa1-314 (from UniProt Q9UKE5) | 0.566 |
| SLK, construct: Full length (from UniProt Q9H2G2) | 1 |
| CDK10, construct: Full length (from UniProt Q15131) | 0.924 |

same assay, conditions: pThr fixed; at +3

| Substance | relative phosphorylation |
| --- | --- |
| PKN2, construct: aa501-984 (from UniProt Q16513) | 0.818 |
| IKBKE, construct: Full length (from UniProt Q14164) | 0.717 |
| MAP4K5, construct: Full length (from UniProt Q9Y4K4) | 0.7 |
| NEK6, construct: Full length (from UniProt Q9HC98) | 0.534 |
| SIK3, construct: aa1-307 (from UniProt Q9Y2K2) | 0.348 |
| TNIK, construct: aa1-314 (from UniProt Q9UKE5) | 0.532 |
| SLK, construct: Full length (from UniProt Q9H2G2) | 0.916 |
| CDK10, construct: Full length (from UniProt Q15131) | 0.88 |

same assay, conditions: pThr fixed; at +4

| Substance | relative phosphorylation |
| --- | --- |
| PKN2, construct: aa501-984 (from UniProt Q16513) | 0.683 |
| IKBKE, construct: Full length (from UniProt Q14164) | 1.04 |
| MAP4K5, construct: Full length (from UniProt Q9Y4K4) | 0.522 |
| NEK6, construct: Full length (from UniProt Q9HC98) | 0.628 |
| SIK3, construct: aa1-307 (from UniProt Q9Y2K2) | 0.35 |
| TNIK, construct: aa1-314 (from UniProt Q9UKE5) | 0.519 |
| SLK, construct: Full length (from UniProt Q9H2G2) | 0.839 |
| CDK10, construct: Full length (from UniProt Q15131) | 0.879 |

same assay, conditions: pThr fixed; at -1

| Substance | relative phosphorylation |
| --- | --- |
| PKN2, construct: aa501-984 (from UniProt Q16513) | 0.799 |
| IKBKE, construct: Full length (from UniProt Q14164) | 0.722 |
| MAP4K5, construct: Full length (from UniProt Q9Y4K4) | 0.433 |
| NEK6, construct: Full length (from UniProt Q9HC98) | 0.494 |
| SIK3, construct: aa1-307 (from UniProt Q9Y2K2) | 0.294 |
| TNIK, construct: aa1-314 (from UniProt Q9UKE5) | 0.449 |
| SLK, construct: Full length (from UniProt Q9H2G2) | 0.431 |
| CDK10, construct: Full length (from UniProt Q15131) | 0.602 |

same assay, conditions: pThr fixed; at -2

| Substance | relative phosphorylation |
| --- | --- |
| PKN2, construct: aa501-984 (from UniProt Q16513) | 0.836 |
| IKBKE, construct: Full length (from UniProt Q14164) | 0.757 |
| MAP4K5, construct: Full length (from UniProt Q9Y4K4) | 0.776 |
| NEK6, construct: Full length (from UniProt Q9HC98) | 0.773 |
| SIK3, construct: aa1-307 (from UniProt Q9Y2K2) | 0.444 |
| TNIK, construct: aa1-314 (from UniProt Q9UKE5) | 0.797 |
| SLK, construct: Full length (from UniProt Q9H2G2) | 0.525 |
| CDK10, construct: Full length (from UniProt Q15131) | 0.737 |

same assay, conditions: pThr fixed; at -3

| Substance | relative phosphorylation |
| --- | --- |
| PKN2, construct: aa501-984 (from UniProt Q16513) | 0.743 |
| IKBKE, construct: Full length (from UniProt Q14164) | 1.13 |
| MAP4K5, construct: Full length (from UniProt Q9Y4K4) | 0.874 |
| NEK6, construct: Full length (from UniProt Q9HC98) | 0.677 |
| SIK3, construct: aa1-307 (from UniProt Q9Y2K2) | 0.527 |
| TNIK, construct: aa1-314 (from UniProt Q9UKE5) | 0.884 |
| SLK, construct: Full length (from UniProt Q9H2G2) | 0.878 |
| CDK10, construct: Full length (from UniProt Q15131) | 0.853 |

same assay, conditions: pThr fixed; at -4

| Substance | relative phosphorylation |
| --- | --- |
| PKN2, construct: aa501-984 (from UniProt Q16513) | 1.11 |
| IKBKE, construct: Full length (from UniProt Q14164) | 1.18 |
